Biological target: T1, His-tagged soluble human PCDH10 (human)
T1 construct: also called sohPCDH10; sohPCDH10-His
Assay: BLI
Details: both partners purified

B1: WEEV virus-like particles (spike E2-E1) (complex)
chain 1: SITDDFTLTSPYLGFCPYCRHSAPCFSPIKIENVWDESDDGSIRIQVSAQFGYNQAGTADVTKFRYMSFDHDHDIKEDSMDKIAISTSGPCRRLGHKGYFLLAQCPPGDSVTVSITSGASENSCTVEKKIRRKFVGREEYLFPPVHGKLVKCHVYDHLKETSAGYITMHRPGPHAYKSYLEEASGEVYIKPPSGKNVTYECKCGDYSTGIVSTRTKMNGCTKAKQCIAYKSDQTKWVFNSPDLIRHTDHSVQGKLHIPFRLTPTVCPVPLAHTPTVTKWFKGITLHLTATRPTLLTTRKLGLRADATAEWITGTTSRNFSVGREGLEYVWGNHEPVRVWAQESAPGDPHGWPHEIIIHYYHRHPVYTVIVLCGVALAILVGTASSAACIAKARRDCLTPYALAPNATVPTALAVLCCIRPTNA
chain 2: FEHATTVPNVPGIPYKALVERAGYAPLNLEITVVSSELTPSTNKEYVTCRFHTVIPSPQVKCCGSLECKASSKADYTCRVFGGVYPFMWGGAQCFCDSENTQLSEAYVEFAPDCTIDHAVALKVHTAALKVGLRIVYGNTTAHLDTFVNGVTPGSSRDLKVIAGPISAAFSPFDHKVVIRKGLVYNYDFPEYGAMKPGAFGDIQASSLDATDIVARTDIRLLKPSVKNIHVPYTQAVSGYEMWKNNSGRPLQETAPFGCKIEVEPLRASNCAYGHIPISIDIPDAAFVRSSESPTILEVSCTVADCIYSADFGGSLTLQYKADREGHCPVHSHSTTAVLKEATTHVTAVGSITLHFSTSSPQANFIVSLCGKKTTCNAECKPPADHIIGEPHKVDQEFQAAVSKTSWNWLLALFGGASSLIVVGLIVLVCSSMLINTRR
**Q.** Which Kd does the source give for B1 here?
**A.** Its Kd is 4.66 nM.

From publication PMC11528095, “PCDH10 is a neuronal receptor for western equine encephalitis virus” (Cell Research, 2024)
